Measurements taken from PMC3202870.

Target: PA63, the cell-associated furin-cleavage product of Bacillus anthracis protective antigen (PA83) (Bacillus anthracis)
Assay: SDS-PAGE and phosphoimaging of 125I-PA recovered from cells

With “PA63, the cell-associated furin-cleavage product of Bacillus anthracis protective antigen (PA83) (domain or fragment)” the stoichiometry N was 7.
